{"source": "paper PMC5890266", "about": "“Targeting the polyadenylation factor EhCFIm25 with RNA aptamers controls survival in Entamoeba histolytica”", "binders": {"B1": {"name": "Ehthio-3'UTR (ssRNA)", "RNA": "AAGGGUAGGAAAAAUUGAAACAUUAAAAGAUUUUCCUUCUUUUAAAGACAGAGUAAAAGAACCAUAUGUUGCUCCAAAAUAUGAAGAAGAAGAACUUUAAAUAAUAACUUUUUCAAGAACAAAAAUUAAUAACAAAUUUAUUUUAUUUGAUUUUACAAUUCUUGUUAUUAUAUGUUGAUAUUUAUUUAAAAUACUCUUUCUUUUAAUUUUUGUUUUUAUUAACAAUAUAUUUUAUAUUAAAUAAAGUUUAAUGAAAAAAAAGUAUUAAAAAGUUGUAAUAAACCUAAUUAAUAAAUGUUU"}, "B2": {"name": "GUUG-probe (ssRNA)", "RNA": "AAUAAUACGACUCACUAUAGACGAAAUGGUUGUCAACGACGAUUA"}, "B3": {"name": "CAAC-probe (ssRNA)", "RNA": "B2 RNA with G29C, U30A, U31A, G32C"}}, "target": "T1, EhCFIm25 wild type (Entamoeba histolytica, UniProt C4M2T1 1-255)", "T1 sequence": "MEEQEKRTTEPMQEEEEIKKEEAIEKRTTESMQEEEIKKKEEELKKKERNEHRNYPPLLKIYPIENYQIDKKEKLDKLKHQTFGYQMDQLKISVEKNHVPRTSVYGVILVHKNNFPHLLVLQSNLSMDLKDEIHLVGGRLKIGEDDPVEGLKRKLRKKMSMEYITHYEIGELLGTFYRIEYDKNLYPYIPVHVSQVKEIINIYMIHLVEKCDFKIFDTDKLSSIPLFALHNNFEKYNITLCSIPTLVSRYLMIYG", "experiment": "EMSA; REMSA: RNA probe (100 ng/ul) with 20 ug EhCFIm25 or 50 ug extract, room temperature 20 min, 10% non-denaturing PAGE, LightShift Chemiluminescent RNA EMSA Kit; buffer, salt and pH not stated", "conditions": "protein: recombinant, tags: 6xHis (pRSET vector), chain copies: 2", "note": "Substitutions are numbered along the chain they refer to.", "data": [{"binder": "B1", "values": [{"measurement": "binding result", "setting": "label: biotin (Biotin RNA Labeling Mix)", "result": "binds"}]}, {"binder": "B2", "values": [{"measurement": "binding result", "setting": "label: biotin as probe", "result": "binds"}]}, {"binder": "B3", "values": [{"measurement": "binding result", "setting": "label: biotin", "result": "no binding"}]}]}
